Patent US6638724

Tested on: T1, human BLNK-1 (B cell LINKER PROTEIN, 70,000 Mr protein)
T1 sequence: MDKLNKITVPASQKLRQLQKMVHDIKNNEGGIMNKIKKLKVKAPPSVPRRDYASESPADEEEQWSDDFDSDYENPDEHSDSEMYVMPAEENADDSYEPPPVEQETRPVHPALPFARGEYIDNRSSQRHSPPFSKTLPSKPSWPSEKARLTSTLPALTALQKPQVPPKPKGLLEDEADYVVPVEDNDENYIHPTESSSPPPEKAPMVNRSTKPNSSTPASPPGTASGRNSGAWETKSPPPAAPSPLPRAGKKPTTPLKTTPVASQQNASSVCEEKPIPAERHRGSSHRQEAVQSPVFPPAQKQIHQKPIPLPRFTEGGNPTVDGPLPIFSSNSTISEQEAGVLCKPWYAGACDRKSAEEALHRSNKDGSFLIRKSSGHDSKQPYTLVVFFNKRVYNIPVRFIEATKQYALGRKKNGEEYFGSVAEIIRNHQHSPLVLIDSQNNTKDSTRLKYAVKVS

Syk protein tyrosine kinase was tested, and the “tyrosine phosphorylation of BLNK” value was “Syk can phosphorylate BLNK when co-expressed in insect cells, and in vitro”.
